This is an account of results in patent publication US20260285931 (published 2026).

The test deals with T1, CD127-Fc (IL-7Ralpha Fc) (human, UniProt P16871).
T1 chain: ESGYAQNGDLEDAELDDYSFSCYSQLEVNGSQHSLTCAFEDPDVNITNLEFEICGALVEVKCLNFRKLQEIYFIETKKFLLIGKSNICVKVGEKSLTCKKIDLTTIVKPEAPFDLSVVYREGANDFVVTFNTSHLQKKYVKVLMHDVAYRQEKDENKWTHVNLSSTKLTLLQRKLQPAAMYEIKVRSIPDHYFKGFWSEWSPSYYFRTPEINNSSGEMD
Kind of test: BLI. In general terms: Biolayer interferometry detects binding as a change in optical thickness at a sensor tip.

Residue numbers refer to the chain shown, from its start.

B1: IL-7_s7 (designed binder)
chain: KKLNDLCFLKRLLQEIKTCWNKIVHTECSHGDLLECADDRKQYESVLMVSIDQLLDSMKEIGSNCLNNEFNFFKRHICDANKECMFLFRAARKLRQFLKMQSTGDFDLHLLKVSEGTTILLQSTGCS
In turn, B1 had a Kd of 56.7 nM.

B2: IL-7_s6 (designed binder)
chain: KKLNDLCFLKRLLQEIKTCWNKILSQRFPKAEFAEVKQYESVLMVSIDQLLDSMKEIGSNCLNNEFNFFKRHICDANKECMFLFRAARKLRQFLKMQSTGDFDLHLLKVSEGTTILLQSTGCS
In turn, B2 registered a dissociation constant Kd of 17.1 nM.

B3: IL-7_s9 (designed binder)
chain: KKLNDLCFLKRLLQEIKTCWNKICSAAADPHECYKQYESVLMVSIDQLLDSMKEIGSNCLNNEFNFFKRHICDANKECMFLFRAARKLRQFLKMQSTGDFDLHLLKVSEGTTILLQSTGCS
For B3, the Kd is 49.3 nM.

B4: IL-7_s12 (designed binder)
chain: KKLNDLCFLKRLLQEIKTCWNKLHEKTPVSDRVTKQYESVLMVSIDQLLDSMKEIGSNCLNNEFNFFKRHICDANKECMFLFRAARKLRQFLKMQSTGDFDLHLLKVSEGTTILLQSTGCS
Turning to B4, the Kd amounted to 25.9 nM.

B5: IL-7_s4 (designed binder)
chain: KKLNDLCFLKRLLQEIKTCWNKIAFTECSQAADKAACLLPKLDEYESVLMVSIDQLLDSMKEIGSNCLNNEFNFFKRHICDANKECMFLFRAARKLRQFLKMQSTGDFDLHLLKVSEGTTILLQSTGCS
Molecule B5 displayed a Kd of 33.6 nM.

B6: IL-7_s10 (designed binder)
chain: KKLNDLCFLKRLLQEIKTCWNKYTKKVPQVSTPTLVQYESVLMVSIDQLLDSMKEIGSNCLNNEFNFFKRHICDANKECMFLFRAARKLRQFLKMQSTGDFDLHLLKVSEGTTILLQSTGCS
For B6, binding was characterised by a dissociation constant (Kd) of 35.3 nM.

B7: IL-7_s10a (designed binder)
chain: B6 chain with V36K
As for B7, binding was put at a Kd of 34.6 nM.

B8: IL-7_s1 (designed binder)
chain: KKLNDLCFLKRLLQEIKTCWNKIFAQYLQQSPFEDHKQYESVLMVSIDQLLDSMKEIGSNCLNNEFNFFKRHICDANKECMFLFRAARKLRQFLKMQSTGDFDLHLLKVSEGTTILLQSTGCS
B8 returned a Kd of 1.89 nM.

B9: IL-7_s2 (designed binder)
chain: KKLNDLCFLKRLLQEIKTCWNKICSAKQEPERNECFKQYESVLMVSIDQLLDSMKEIGSNCLNNEFNFFKRHICDANKECMFLFRAARKLRQFLKMQSTGDFDLHLLKVSEGTTILLQSTGCS
Regarding B9, the Kd came to 10.6 nM.

B10: IL-7_s8 (designed binder)
chain: B9 chain with I23E, A26E, Q28P, E29L, P30L, R32K, N33S, E34H, F36I
For the molecule B10, the Kd came to 33.4 nM.

B11: IL-7_s13 (designed binder)
chain: KKLNDLCFLKRLLQEIKTCWNKILVEKCSKADDKETCFAEDGKQYESVLMVSIDQLLDSMKEIGSNCLNNEFNFFKRHICDANKECMFLFRAARKLRQFLKMQSTGDFDLHLLKVSEGTTILLQSTGCS
B11 came in with a dissociation constant (Kd) of 31.9 nM.

B12: IL-7_s11 (designed binder)
chain: KKLNDLCFLKRLLQEIKTCWNKKVGSKCSKHPEAKRMPCAEDYLKQYESVLMVSIDQLLDSMKEIGSNCLNNEFNFFKRHICDANKECMFLFRAARKLRQFLKMQSTGDFDLHLLKVSEGTTILLQSTGCS
Turning to B12, binding was characterised by a dissociation constant (Kd) of 39.3 nM.

B13: IL-7_s5 (designed binder)
chain: KKLNDLCFLKRLLQEIKTCWNKILQKFGERAAKQYESVLMVSIDQLLDSMKEIGSNCLNNEFNFFKRHICDANKECMFLFRAARKLRQFLKMQSTGDFDLHLLKVSEGTTILLQSTGCS
For the molecule B13, binding was put at a Kd of 7.57 nM.

B14: IL-7_s13a (designed binder)
chain: KKLNDLCFLKRLLQEIKTCWNKICSKADDKETCKQYESVLMVSIDQLLDSMKEIGSNCLNNEFNFFKRHICDANKECMFLFRAARKLRQFLKMQSTGDFDLHLLKVSEGTTILLQSTGCS
Take B14: the Kd came out at 3.6 nM.

B15: IL-7_s4a (designed binder)
chain: KKLNDLCFLKRLLQEIKTCWNKRYKAAFTECSQAADKAACLLPKLDELKQYESVLMVSIDQLLDSMKEIGSNCLNNEFNFFKRHICDANKECMFLFRAARKLRQFLKMQSTGDFDLHLLKVSEGTTILLQSTGCS
For the molecule B15, binding was characterised by a dissociation constant (Kd) of 14.5 nM.

B16: IL-7 wt-degly (protein)
chain: DCDIEGKDGKQYESVLMVSIDQLLDSMKEIGSNCLNNEFNFFKRHICDANKEGMFLFRAARKLRQFLKMQSTGDFDLHLLKVSEGTTILLQCTGQVKGRKPAALGEAQPTKSLEEQKSLKEQKKLNDLCFLKRLLQEIKTCWNKILMGTKEH
For B16, the equilibrium dissociation constant (Kd) was 64.7 nM.

In general, Kd refers to a measure of binding affinity in units of concentration.
